Series [1] addresses soluble disulfide-stabilized HIV-1 CA hexamer (A14C/E45C/W184A/M185A) (Human immunodeficiency virus type 1 group M subtype B, UniProt P12493, A146C/E177C/M317A/W316A). Kind of series: biochemical. The format is binding.
In series [2] the target is soluble, disulfide-crosslinked HIV-1 CA hexamer (A14C/E45C/W184A/M185A) (HIV-1). Kind of series: nanoDSF.
Series [3] deals with disulfide-crosslinked A14C/E45C HIV-1 CA tubes (HIV-1). Nature of the series: co-sedimentation.
The target in series [4] is soluble, disulfide-crosslinked HIV-1 CA hexamer (A14C/E45C/W184A/M185A) (HIV-1). Kind of series: cryo-EM structure.
Series [5] has the same target. Kind of series: nanoDSF. This is another data set of the same source.
Series [6] can be described thus: Observation of proteolysis during protein preparation. Particulars: recombinant protein preparation from E. coli. It counts as physicochemical.

Like-named read-outs stand apart in the source and are kept apart here.

Molecule Ac-EIIAEDYDDDPVDYE-NH2 [15–6] came in with a Kd in series [1] of 54 ± 0.4 nM.

In series [2], “PQBP1 Nt peptide (residues 1–46) (from UniProt O60828 1-46)” showed a Kd of 503 nM.

Regarding “full-length recombinant PQBP1 (polyglutamine binding protein 1) (from UniProt O60828 1-265) (natural protein)”, the percent of input pelleted with the CA tubes in series [3] was determined as 17%. Moreover, in series [2], the shift in apparent Tm of CA came to 2 °C.

In turn, “soluble, disulfide-crosslinked HIV-1 CA hexamer (A14C/E45C/W184A/M185A) (complex)” displayed a stoichiometry N in series [4] of 6.

B1: PQBP1 15-mer peptide 15–6 (peptide)
peptide: Ac-EIIAEDYDDDPVDYE-NH2
B1: the Kd in series [5] stood at 54 nM.

B2: DE-to-G: recombinant DE-to-G PQBP1 mutant protein (protein)
chain: MPLPVALQTRLAKRGILKHLEPEPGGGIIAEDYGGGPVDYEATRLEGLPPSWYKVFDPSCGLPYYWNADTDLVSWLSPHDPNSVVTKSAKKLRSSNADAEEKLDRSHDKSDRGHDKSDRSHEKLDRGHDKSDRGHDKSDRDRERGYDKVDRERERDRERDRDRGYDKADREEGKERRHHRREELAPYPKSKKAVSRKDEELDPMDPSSYSDAPRGTWSTGLPKRNEAKTGADTTAAGPLFQQRPYPSPGAVLRANAEASRTKQQD
modifications: left off: His-tag (with Gly-Gly linker), C-terminal, state not stated
For the molecule B2, the “Susceptibility to proteolysis” value in series [6] is “prone to proteolysis”.

For the origin of these results see publication PMC10885737 (Journal of molecular biology, 2023).
